Molecular target: T1, histidine-rich glycoprotein (HRG), human plasma (human, UniProt P04196 19-525, glycosylated (a total of about 20-KDa glycosyl chains))
T1 construct: histidine-rich glycoprotein, human plasma protein; 525 amino acids before processing and secretion; In the pull-down three bands (BP1, BP2, BP3) were all identified as HRG; BP2 and BP3 were estimated to be proteolytic products of BP1; also called plasma HRG; BP1; source: endogenous, healthy human plasma (pull-down)
T1 sequence (looked up): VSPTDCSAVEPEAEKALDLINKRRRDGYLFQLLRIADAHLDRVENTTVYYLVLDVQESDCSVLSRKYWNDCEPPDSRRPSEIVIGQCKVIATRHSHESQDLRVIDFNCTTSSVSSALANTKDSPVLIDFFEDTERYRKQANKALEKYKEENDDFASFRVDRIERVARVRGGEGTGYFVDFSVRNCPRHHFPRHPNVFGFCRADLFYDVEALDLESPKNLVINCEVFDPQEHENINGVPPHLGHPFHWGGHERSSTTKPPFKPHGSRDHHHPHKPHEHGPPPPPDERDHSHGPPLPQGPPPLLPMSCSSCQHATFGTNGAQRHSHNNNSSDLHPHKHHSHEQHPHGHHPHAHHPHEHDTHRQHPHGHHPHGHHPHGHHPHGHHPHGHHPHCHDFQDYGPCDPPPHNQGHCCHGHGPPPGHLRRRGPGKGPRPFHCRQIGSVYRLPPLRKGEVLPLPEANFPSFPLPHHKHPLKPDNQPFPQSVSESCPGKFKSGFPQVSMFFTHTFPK
Experiment: ELISA; 96-well plate coated with purified HRG (100 µg/mL); blocked with Blockmaster DB1130; biotinylated S100A8/A9 at different concentrations; HRP-streptavidin, TMB; background of wells without HRG deducted
Conditions: both partners purified

- binding result: binds
B1: human recombinant S100A8/A9 heterodimer (complex)
chain 1: MLTELEKALNSIIDVYHKYSLIKGNFHAVYRDDLKKLLETECPQYIRKKGADVWFKELDINTDGAVNFQEFLILVIKMGVAAHKKSHEESHKE
chain 2: MTCKMSQLERNIETIINTFHQYSVKLGHPDTLNQGEFKELVRKDLQNFLKKENKNEKVIEHIMEDLDTNADKQLSFEEFIMLMARLTWASHEKMHEGDEGPGHHHKPGLGEGTP
modifications: biotinylated in the ELISA (chain and site not stated) | biotinylated in the ELISA (chain and site not stated)
notes: S100A8 (Calgranulin A), human; S100A9 (Calgranulin B), human; Biotinylated in the ELISA; no biotin is mentioned for the cell assays; also called recombinant human S100A8/A9 heterodimer complex; biotinylated human recombinant S100A8/A9 protein; source: recombinant, highly purified, prepared as described previously [43]

Reference: article PMC9499646, “Histidine-Rich Glycoprotein Suppresses the S100A8/A9-Mediated Organotropic Metastasis of Melanoma Cells” (International Journal of Molecular Sciences, 2022)
